Measurements taken from the supplement of paper PMC9170038.

What follows are sequences tested on MS2 coat protein (assay: apparent KD of MS2 coat protein; higher = weaker reporter binding). Settings: Eterna round: R107; input ligand: theophylline 20 uM.
How it was run: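 Designed RNA switches, transcribed on-chip from Illumina sequencing clusters, were titrated with SNAP-549-labelled MS2 coat protein from 0.7 or 1.5 nM to 3 µM in twofold steps. The solution was 100 mM Tris-HCl pH 7.5, 80 mM KCl, 4 mM MgCl2, with constant ligand or without it. Apparent KD is the median over each design's normalised cluster binding-curve fits.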

| Sequence | apparent KD of MS2 coat protein |
| --- | --- |
| AGCACUGUGACGGCCGCCACUAUAUAUAGGGUGGUCAGGUUCAUAAUACAUGAGGAUCACCCAUGUAGGACCGGGUCUCAGUGCA [Omei Trp Exc B A v4] | 14.9 nM |
| AUGCAUAGCGGAAGGAGCGCAAUAGAAUGACAUGAGGAUCACCCAUGUGUGUGAUGUGGGUUGCAGGUAGGUCGCCGAGUGGCAU [#11 Exclusion - Arginine B] | 95.9 nM |
| CGAUAUAAGACGGCCGCCACUAUUAUGUAACAAAAUAAACAUGAGGAUCACCCAUGUACAUGGGAUAGGACCGGGUCCAAUAACG [#21 Same State - Tryptophan B] | 148 nM |
| GGACUAACCAGAAGGAGCGGCACGCAGAAACUGCAAAUUCCUCCACACGAGGAUCACCCGUGUCAGGUAGGUCGCUGGUUAGUCG | 30.6 nM |
| ACGCUGAUUGAUUACAAUCAGCGAAAAGAUACCAGUGGGUAAUCCCACCCUUGGCAGCUUAAACAUGAGGAUCACCCAUGUGGUA [TheoAS 14 #MS2Right #BothOrNeither #AlternativeMS2] | 146 nM |
| UAUACAUGGGAUACCAUGGAUCCGAGUGAUACCAGCUAUCCGAAUAGCCCUUGGCAGCACAGUACAUGAGGAUCACCCAUGUAUA [Theo A SS t5] | 30.2 nM |
| GUACAUGAGGAUCACCCAUGUAUAGUUGAAGGAGCGACCGGUGGGUCAGGUAGGUCGCAGCGCAUGGCGUCAACCCGUGUAUGCC [#1 Exclusion - Arginine A Attempt #27 (Inspired by Pi)] | 24.8 nM |
| AAUAUAUAUCACGAACUGUGGUGUAUGUUGCGAGGACCGGUACGGCCGCCACUCGACCGGUGGUACAUGAGGAUCACCCAUGUUG [XTryp A #10] | 82 nM |
| UUGGUUAUGCGAAGGAGCGGGAAAUAUAUAUAUAUAAUCCUAACAUGAGGAUCACCCAUGUCCCAGGUAGGUCGCGCAUAGUUGG [12.I] | 80.3 nM |
| AAGCGCACAUGAGGAUCACCCAUGUGCGGCCGAGGACCGGUACGGCCGCCACUCGGAACUAGAAAUAGGAACGGGUAGUGCGCAA [TryptophanA Sol_1] | 13.3 nM |
| CAAGCACCAACCGAUACCAGCUUAGUAGUAUGCUCAUUAAACAUGAGGAUCACCCAUGUGAGCCCUUGGCAGCGGAUUUCCCUGC [theeternabot_exclusion_MS2_Theo_B_12] | 18.3 nM |
| UACUUGCUGACGGCCGCCACUAGAACAUGAGGAUCACCCAUGUACCCGGUCCUACAUGGGAUGACUAGGACCGGGUCAGCAAGAU [(Trp1)-(Ms2)-(T)'-(M)'-(Trp2)_Design3] | 72.4 nM |
| AUAAAUAAUAAAUAUAAUAAAGUGGGUGAACGAGGACCGGUACGGCCGCCACUCGGACAUGAGGAUCACCCAUGUCCAUGUGAAA [AstrosExtTry#3] | 19.1 nM |
| CCGCACAUGAGGAUCACCCAUGUCCGGGUUCGAGGACCGGUACGGCCGCCACUCGGACAUGUGCGCCCUUCAUGCACUGUAUAAA [Macetius] | 158 nM |
| AAACAUGAGGAUCACCCAUGUUCUCCUGUCCGAGGACCGGUACGGCCGCCACUCGGUUCUCGGGAGGAUGGUCAAAGACUAUCCA [Omei Trp A SS B v8] | 16.9 nM |

Same assay, conditions: Eterna round: R107; input ligand: theophylline 2 mM

| Sequence | apparent KD of MS2 coat protein |
| --- | --- |
| UUGGGUAUGCGAAGGAGCGGGAAAUAUAUAUAUAUAAUCCUAACAUGAGGAUCACCCAUGUCCCAGGUAGGUCGCGCAUAUUUGG [12.J] | 106 nM |
| UGGGUACAUGAGGAUCACCCAUGUACUGAAGGAGCGAGAAAUAUCUCAGGUAGGUCGCAGACAUGAGGAUCACCCAUGUAGUAGG [Exclusion Arginine A GF 11] | 33.1 nM |
| AGAAUAUAGUCGGCCGCCACUCUUCAUACAUGAGGAUCACCCAUGUUUAAUUCUUGGAUAUUCUUGAGGACCGGGACAUAGGCAU [JR_SSTryptoB_Sub019] | 21.6 nM |
| AAAAUAUAGACGGCCGCCACUAUAAUCAUGAGGAACAUGAGGAUCACCCAUGUAUGAGGAUCACCUAGGACCGGGUCAUAUAAAA [#24 Exclusion Tryptophan B] | 29.5 nM |
| GGGUACAUCGCGGCCGCCACUCAUGUAAAUGCAUGAGGAUCACCCAUGCCGAUGGAGACAUCGGAGAGGACCGGGUGAUGUACCG | 71.1 nM |
| UACAUGAGGAUCACCCAUGUAUGAAGGGAUACCAGCGACAGUAAGCGCCCUUGGCAGCCCGUGAAUAAAGGGUGGGUAAAAUAGU [Exclusion Theophyline A GF 3] | 39.4 nM |
| CUAUAUAUAAGAAGGAGCGACAUGAGGAUCACCCAUGUCUACCACGUCGAAAGACGCUCAUGUCAGGUAGGUCGCUUAUAUAUAG [Astros-Eli-mod1] | 139 nM |
| AGCACUGUGACGGCCGCCACUAUAUAUAGGGUGGUCAGGUUCAUAAUACAUGAGGAUCACCCAUGUAGGACCGGGUCUCAGUGCA [Omei Trp Exc B A v4] | 10.9 nM |
| AUGCAUAGCGGAAGGAGCGCAAUAGAAUGACAUGAGGAUCACCCAUGUGUGUGAUGUGGGUUGCAGGUAGGUCGCCGAGUGGCAU [#11 Exclusion - Arginine B] | 127 nM |
| CGAUAUAAGACGGCCGCCACUAUUAUGUAACAAAAUAAACAUGAGGAUCACCCAUGUACAUGGGAUAGGACCGGGUCCAAUAACG [#21 Same State - Tryptophan B] | 151 nM |
| GGACUAACCAGAAGGAGCGGCACGCAGAAACUGCAAAUUCCUCCACACGAGGAUCACCCGUGUCAGGUAGGUCGCUGGUUAGUCG | 27.6 nM |
| GUACAUGAGGAUCACCCAUGUAUAGUUGAAGGAGCGACCGGUGGGUCAGGUAGGUCGCAGCGCAUGGCGUCAACCCGUGUAUGCC [#1 Exclusion - Arginine A Attempt #27 (Inspired by Pi)] | 21 nM |
| AAUAUAUAUCACGAACUGUGGUGUAUGUUGCGAGGACCGGUACGGCCGCCACUCGACCGGUGGUACAUGAGGAUCACCCAUGUUG [XTryp A #10] | 56.4 nM |
| UUGGUUAUGCGAAGGAGCGGGAAAUAUAUAUAUAUAAUCCUAACAUGAGGAUCACCCAUGUCCCAGGUAGGUCGCGCAUAGUUGG [12.I] | 83.3 nM |
| AAGCGCACAUGAGGAUCACCCAUGUGCGGCCGAGGACCGGUACGGCCGCCACUCGGAACUAGAAAUAGGAACGGGUAGUGCGCAA [TryptophanA Sol_1] | 13.6 nM |
| UACUUGCUGACGGCCGCCACUAGAACAUGAGGAUCACCCAUGUACCCGGUCCUACAUGGGAUGACUAGGACCGGGUCAGCAAGAU [(Trp1)-(Ms2)-(T)'-(M)'-(Trp2)_Design3] | 68.5 nM |
| AUAAAUAAUAAAUAUAAUAAAGUGGGUGAACGAGGACCGGUACGGCCGCCACUCGGACAUGAGGAUCACCCAUGUCCAUGUGAAA [AstrosExtTry#3] | 19.3 nM |
| CCGCACAUGAGGAUCACCCAUGUCCGGGUUCGAGGACCGGUACGGCCGCCACUCGGACAUGUGCGCCCUUCAUGCACUGUAUAAA [Macetius] | 239 nM |
| AAACAUGAGGAUCACCCAUGUUCUCCUGUCCGAGGACCGGUACGGCCGCCACUCGGUUCUCGGGAGGAUGGUCAAAGACUAUCCA [Omei Trp A SS B v8] | 13.5 nM |

Same assay, conditions: Eterna round: R107; input ligand: tryptophan 2.4 mM

| Sequence | apparent KD of MS2 coat protein |
| --- | --- |
| AAGAGACAUGAGGAUCACCCAUGUGUUGAUACCAGAAACACAAAGUUCCCUUGGCAGCAAAUCUGAGCGAAACGAUCUAGAGCGC [theeternabot_sameState_MS2_Theo_A_30] | 70.6 nM |
| UUGGGUAUGCGAAGGAGCGGGAAAUAUAUAUAUAUAAUCCUAACAUGAGGAUCACCCAUGUCCCAGGUAGGUCGCGCAUAUUUGG [12.J] | 67.8 nM |
| UGGGUACAUGAGGAUCACCCAUGUACUGAAGGAGCGAGAAAUAUCUCAGGUAGGUCGCAGACAUGAGGAUCACCCAUGUAGUAGG [Exclusion Arginine A GF 11] | 26.7 nM |
| AAAAUAUAGACGGCCGCCACUAUAAUCAUGAGGAACAUGAGGAUCACCCAUGUAUGAGGAUCACCUAGGACCGGGUCAUAUAAAA [#24 Exclusion Tryptophan B] | 25.6 nM |
| UUUACAUGAGGAUCACCCAUGUUCCAUGAUACCAGACAUGAAAAUGUCCCUUGGCAGCAUGAAUGAUUCAUAGGAUAAUUAUGGG [Medlanky] | 72.6 nM |
| UGUUUGGUGCGCGAGUGUUGGAUAAUUGAUACCAGUGUAGAAGAGCGCCCUUGGCAGCGAAUCCUAACAUGAGGAUCACCCAUGU [5.W] | 40.3 nM |
| GGGUACAUCGCGGCCGCCACUCAUGUAAAUGCAUGAGGAUCACCCAUGCCGAUGGAGACAUCGGAGAGGACCGGGUGAUGUACCG | 33.6 nM |
| ACACAUGAGGAUCACCCAUGUUCAAUAGAUACCAGUGAUACGGUGCACCCUUGGCAGCUGUUGCUGAGUGAUGGUUCCCUCGGAA [#22 SameState-TheophyllineA] | 52.5 nM |
| GAAACGUAGGUGGAGCGGUGAAAUGGCGAUACCAGCGUGGAAACACGCCCUUGGCAGCGUUAGAACAUGAGGAUCACCCAUGUUU [#21 Exclusion-TheophyllineA] | 26.4 nM |
| UACAUGAGGAUCACCCAUGUAUGAAGGGAUACCAGCGACAGUAAGCGCCCUUGGCAGCCCGUGAAUAAAGGGUGGGUAAAAUAGU [Exclusion Theophyline A GF 3] | 16.1 nM |
| ACGACGCAUAGUGAUACCAGUACAACAUGAGGAUCACCCAUGUCACAUAUGUUGUAAUAGUGCCCUUGGCAGCACUAUGCGUCAG [SSTheo B #3] | 125 nM |
| CUAUAUAUAAGAAGGAGCGACAUGAGGAUCACCCAUGUCUACCACGUCGAAAGACGCUCAUGUCAGGUAGGUCGCUUAUAUAUAG [Astros-Eli-mod1] | 93.9 nM |
| CGAUGAUGAAGGGAUACCAGAAAUGGUAUUCCUUUAUUUCUUACAUGAGGAUCACCCAUGUUCCCUUGGCAGCUUUUUAUCAUCG [ETHB #6] | 64.4 nM |
| AGCACUGUGACGGCCGCCACUAUAUAUAGGGUGGUCAGGUUCAUAAUACAUGAGGAUCACCCAUGUAGGACCGGGUCUCAGUGCA [Omei Trp Exc B A v4] | 14 nM |
| AUGCAUAGCGGAAGGAGCGCAAUAGAAUGACAUGAGGAUCACCCAUGUGUGUGAUGUGGGUUGCAGGUAGGUCGCCGAGUGGCAU [#11 Exclusion - Arginine B] | 59.1 nM |
| GGACUAACCAGAAGGAGCGGCACGCAGAAACUGCAAAUUCCUCCACACGAGGAUCACCCGUGUCAGGUAGGUCGCUGGUUAGUCG | 23.1 nM |
| ACGCUGAUUGAUUACAAUCAGCGAAAAGAUACCAGUGGGUAAUCCCACCCUUGGCAGCUUAAACAUGAGGAUCACCCAUGUGGUA [TheoAS 14 #MS2Right #BothOrNeither #AlternativeMS2] | 126 nM |
| UAUACAUGGGAUACCAUGGAUCCGAGUGAUACCAGCUAUCCGAAUAGCCCUUGGCAGCACAGUACAUGAGGAUCACCCAUGUAUA [Theo A SS t5] | 18.6 nM |
| GUACAUGAGGAUCACCCAUGUAUAGUUGAAGGAGCGACCGGUGGGUCAGGUAGGUCGCAGCGCAUGGCGUCAACCCGUGUAUGCC [#1 Exclusion - Arginine A Attempt #27 (Inspired by Pi)] | 17.9 nM |
| AAUAUAUAUCACGAACUGUGGUGUAUGUUGCGAGGACCGGUACGGCCGCCACUCGACCGGUGGUACAUGAGGAUCACCCAUGUUG [XTryp A #10] | 58.1 nM |
| UUGGUUAUGCGAAGGAGCGGGAAAUAUAUAUAUAUAAUCCUAACAUGAGGAUCACCCAUGUCCCAGGUAGGUCGCGCAUAGUUGG [12.I] | 69.1 nM |
| AAGCGCACAUGAGGAUCACCCAUGUGCGGCCGAGGACCGGUACGGCCGCCACUCGGAACUAGAAAUAGGAACGGGUAGUGCGCAA [TryptophanA Sol_1] | 10.9 nM |
| CAAGCACCAACCGAUACCAGCUUAGUAGUAUGCUCAUUAAACAUGAGGAUCACCCAUGUGAGCCCUUGGCAGCGGAUUUCCCUGC [theeternabot_exclusion_MS2_Theo_B_12] | 13.5 nM |
| AUAAAUAAUAAAUAUAAUAAAGUGGGUGAACGAGGACCGGUACGGCCGCCACUCGGACAUGAGGAUCACCCAUGUCCAUGUGAAA [AstrosExtTry#3] | 40.1 nM |
